B1: r11_951_TrROS_Hall (parent)
chain: KKKYVIKVYFEDTGKEVEIEAESKEEALEAAKRLAEELGLKIKKVEIYP

In the series the parent is B1. The experiment in a line: folding stability dG (cDNA display proteolysis); higher = more stable. To be noted: PBS, room temperature.
On to KKKYVIKVYFEDTGKEVRIEAESKEEALEAAKRLAEELGLKIKKVEIYP [E18R], for which the “folding stability dG” value is 4.19 kcal/mol.

Turning to KKKYVIKVYFRDTGKEVEIEAESKEEALEAAKRLAEELGLKIKKVEIYP [E11R], the “folding stability dG” value was found to be 4.82 kcal/mol.

KKKYVIKVYFSDTGKEVEIEAESKEEALEAAKRLAEELGLKIKKVEIYP [E11S]: the “folding stability dG” value was found to be 4.63 kcal/mol.

As to KKKYVIKVYFEDTGKEVEICAESKEEALEAAKRLAEELGLKIKKVEIYP [E20C], the “folding stability dG” value stood at 4.28 kcal/mol.

With KKKYVIKVYFEDTGKEVEIEAESKEEALEAAKRLAEELGLKIKKVEIYI [P49I], the “folding stability dG” value was 4.72 kcal/mol.

Turning to KKKYVIKVYFEDTGKEVEIEAESKEEALEAAKRLAEELGLKIKKVEIYS [P49S], the “folding stability dG” value was 4.62 kcal/mol.

KKKYVIKVYFEDTGKEVEAEAESKEEALEAAKRLAEELGLKIKKVEIYP [I19A]: the “folding stability dG” value was 3.98 kcal/mol.

For the variant KKKYVIKVYFEDTGKEVEIEAESKEEALRAAKRLAEELGLKIKKVEIYP [E29R], the “folding stability dG” value amounted to 4.64 kcal/mol.

For KKKYVIKVYFEDTGKEVEIEAESKEEALGAAKRLAEELGLKIKKVEIYP [E29G], the “folding stability dG” value worked out at 4.29 kcal/mol.

As to KKKYVIKVYFEDTGKEVEIEAESKEEALAAAKRLAEELGLKIKKVEIYP [E29A], the “folding stability dG” value worked out at 4.75 kcal/mol.

For KKKYVIKVYFEDMGKEVEIEAESKEEALEAAKRLAEELGLKIKKVEIYP [T13M], the “folding stability dG” value came out at 4.35 kcal/mol.

As for KKKYVIKVYFEDTGKEVEIEAESKEEALEAFKRLAEELGLKIKKVEIYP [A31F], the “folding stability dG” value came to 4.48 kcal/mol.

Regarding KKKYVIKVYFEDTGKEVEIEAESKEEALEAAKDLAEELGLKIKKVEIYP [R33D], the “folding stability dG” value was 4.09 kcal/mol.

Consider KKKYVIKVYFEDTGKEVEIEAESKEEALEAAKVLAEELGLKIKKVEIYP [R33V], for which the “folding stability dG” value amounted to 4.22 kcal/mol.

With KKKYVCKVYFEDTGKEVEIEAESKEEALEAAKRLAEELGLKIKKVEIYP [I6C], the “folding stability dG” value was determined as 3.63 kcal/mol.

Take KKKYVIKVYFEDTYKEVEIEAESKEEALEAAKRLAEELGLKIKKVEIYP [G14Y]: the “folding stability dG” value came out at 4.5 kcal/mol.

In the case of KKKYVIKVYFEDTCKEVEIEAESKEEALEAAKRLAEELGLKIKKVEIYP [G14C], the “folding stability dG” value was determined as 4.36 kcal/mol.

As for KKKYVIKVYFEDTGKEVEIEAESKEEALEAAKRLAEELGLKICKVEIYP [K43C], the “folding stability dG” value came to 4.13 kcal/mol.

As for KKKYVIKVYFEDTGKEVEIEAESKEEALEAAKRLAEELGLKITKVEIYP [K43T], the “folding stability dG” value turned out to be 4.32 kcal/mol.

For HKKYVIKVYFEDTGKEVEIEAESKEEALEAAKRLAEELGLKIKKVEIYP [K1H], the “folding stability dG” value amounted to 4.46 kcal/mol.

As to TKKYVIKVYFEDTGKEVEIEAESKEEALEAAKRLAEELGLKIKKVEIYP [K1T], the “folding stability dG” value turned out to be 4.5 kcal/mol.

On to KKKYVIKVYFEDTGKEVEIEAESCEEALEAAKRLAEELGLKIKKVEIYP [K24C], for which the “folding stability dG” value turned out to be 4.53 kcal/mol.

Regarding KKKYVIKVYFEDTGKEVEIEAESKEEALEAAKRLAEELGLKIKCVEIYP [K44C], the “folding stability dG” value came to 4.11 kcal/mol.

On to KKKYVIKVYFEDTGKEGEIEAESKEEALEAAKRLAEELGLKIKKVEIYP [V17G], for which the “folding stability dG” value stood at 4.05 kcal/mol.

As to KKKYVIKVYFEDTGKEVEIEAESKEEALEAAKRLAEELGLKIKKAEIYP [V45A], the “folding stability dG” value was determined as 3.96 kcal/mol.

As for KKKYVIKVYFEDTGKEVEIEAESKEEALEAAKRLAEELGLKIKKREIYP [V45R], the “folding stability dG” value came out at 2.97 kcal/mol.

Consider KKKYVIKVYFEDTGKEVEIEAESKEEALEAAKRLAEELGWKIKKVEIYP [L40W], for which the “folding stability dG” value was 4.72 kcal/mol.

Turning to KLKYVIKVYFEDTGKEVEIEAESKEEALEAAKRLAEELGLKIKKVEIYP [K2L], the “folding stability dG” value stood at 4.61 kcal/mol.

Regarding KKKYVIKVYFEDTGKEVEIEYESKEEALEAAKRLAEELGLKIKKVEIYP [A21Y], the “folding stability dG” value worked out at 4.18 kcal/mol.

On to KKKYVIKVYFEDTGKEVEIEAESKREALEAAKRLAEELGLKIKKVEIYP [E25R], for which the “folding stability dG” value was 4.22 kcal/mol.

Regarding KKKYVIIVYFEDTGKEVEIEAESKEEALEAAKRLAEELGLKIKKVEIYP [K7I], the “folding stability dG” value came out at 4.11 kcal/mol.

Turning to KKKYVIKVYFEDTGKEVEIEAISKEEALEAAKRLAEELGLKIKKVEIYP [E22I], the “folding stability dG” value was 4.11 kcal/mol.

As for KKKYVIKVYFEDTGKEVEIEAESKEEALEAAKRLAEELGLKEKKVEIYP [I42E], the “folding stability dG” value was found to be 2.5 kcal/mol.

For KKKYVIKVYFEMTGKEVEIEAESKEEALEAAKRLAEELGLKIKKVEIYP [D12M], the “folding stability dG” value turned out to be 4.55 kcal/mol.

On to KKKYVIKVYFEDTGKEVEIEAESKEEALEAAKRLAEELRLKIKKVEIYP [G39R], for which the “folding stability dG” value came out at 4.43 kcal/mol.

For KKKYVIKVYFEDTGKEVEIEAESKEEALEAAKRLAEELFLKIKKVEIYP [G39F], the “folding stability dG” value was 4.14 kcal/mol.

For the variant KKKYVIKVYFEDTGKEVEIEAESKEEALEAAKRLAEELGLHIKKVEIYP [K41H], the “folding stability dG” value worked out at 4.22 kcal/mol.

Take KKKYVIKVYFEDTGKEVEIEAESKEEALEAAKRLAEELGLKIKKVEAYP [I47A]: the “folding stability dG” value worked out at 4.17 kcal/mol.

Consider KKKYVIKDYFEDTGKEVEIEAESKEEALEAAKRLAEELGLKIKKVEIYP [V8D], for which the “folding stability dG” value was found to be 1.26 kcal/mol.

For KKKYVIKHYFEDTGKEVEIEAESKEEALEAAKRLAEELGLKIKKVEIYP [V8H], the “folding stability dG” value was found to be 1.38 kcal/mol.

Consider KKKYVIKIYFEDTGKEVEIEAESKEEALEAAKRLAEELGLKIKKVEIYP [V8I], for which the “folding stability dG” value amounted to 4.47 kcal/mol.

As to KKKYVIKVYFEDTGKEVEIEAESKEEALEAAKRLAEELGLKIKKVEIRP [Y48R], the “folding stability dG” value was determined as 4.36 kcal/mol.

Consider KKKYVIKVYFEDTGKEVEIEAESKEEALEAAKRLAEELGLKIKKVEIHP [Y48H], for which the “folding stability dG” value amounted to 4.44 kcal/mol.

As to KKKYVIKVYFEDTGKEVEIEAESKEEALEAAKRLAEEDGLKIKKVEIYP [L38D], the “folding stability dG” value was 3.39 kcal/mol.

Take KKKYVIKVYFEDTGFEVEIEAESKEEALEAAKRLAEELGLKIKKVEIYP [K15F]: the “folding stability dG” value is 4.38 kcal/mol.

As for KKKYVIKVYFEDTGKEVEIEAESKEEATEAAKRLAEELGLKIKKVEIYP [L28T], the “folding stability dG” value amounted to 4.16 kcal/mol.

On to KKKYVIKVYFEDTGKEVEIEAESKEEAPEAAKRLAEELGLKIKKVEIYP [L28P], for which the “folding stability dG” value stood at 3.39 kcal/mol.

As for KKKYVIKVYFEDTGKEVEIEAESKEEASEAAKRLAEELGLKIKKVEIYP [L28S], the “folding stability dG” value was 4.2 kcal/mol.

Turning to KKKYVIKVYFEDTGKEVEIEAESKEEALEAAKRWAEELGLKIKKVEIYP [L34W], the “folding stability dG” value was determined as 4.57 kcal/mol.

As to KKKYVIKVYFEDTGKEVEIEAESKEEALEAAKRQAEELGLKIKKVEIYP [L34Q], the “folding stability dG” value came out at 3.99 kcal/mol.

As to KKKYVIKVSFEDTGKEVEIEAESKEEALEAAKRLAEELGLKIKKVEIYP [Y9S], the “folding stability dG” value was 4.16 kcal/mol.

For the variant KKKYVIKVLFEDTGKEVEIEAESKEEALEAAKRLAEELGLKIKKVEIYP [Y9L], the “folding stability dG” value turned out to be 4.26 kcal/mol.

As for KKKYVIKVGFEDTGKEVEIEAESKEEALEAAKRLAEELGLKIKKVEIYP [Y9G], the “folding stability dG” value worked out at 3.74 kcal/mol.

For the origin of these results see the MegaScale stability set (Tsuboyama et al. 2023).
